From paper PMC8060278 (Nature Communications, 2021)

B1: monomeric recombinant VHH81 (construct not stated for this experiment) (VHH)
VHH: EVQLVESGGGLVQPGGSLRLSCAASGRTFSYNPMGWFRQAPGKGRELVAAISRTGGSTYYPDSVEGRFTISRDNAKRMVYLQMNSLRAEDTAVYYCAAAGVRAEDGRVRTLPSEYTFWGQGTQVTVSS
notes: also called PMP12A2h1; source: produced in bacteria

What was measured:
GPIbα LBD (Homo sapiens) = GPIbα LBD (Homo sapiens) (UniProt P07359); details: cited from earlier work
plasma-derived VWF = biological target: T1, plasma-derived VWF (Homo sapiens, UniProt P04275); assay: ELISA; VWF coated on plates (6 μg/mL in PBS); VHH81 detected with HRP-conjugated anti-VHH antibody; details: both partners purified
T1 construct: von Willebrand factor from plasma (multimeric); In the flow-chamber functional row the VWF is that of human whole blood; also called plasma VWF; Humate-P; source: reconstituted in PBS from outdated lyophilized Humate-P (CSL-Behring)

purified VWF = biological target: T2, purified VWF (Homo sapiens, UniProt P04275); assay: as above; details: both partners purified
T2 construct: von Willebrand factor

GPIbα LBD (Homo sapiens), sequence (P07359 17-306): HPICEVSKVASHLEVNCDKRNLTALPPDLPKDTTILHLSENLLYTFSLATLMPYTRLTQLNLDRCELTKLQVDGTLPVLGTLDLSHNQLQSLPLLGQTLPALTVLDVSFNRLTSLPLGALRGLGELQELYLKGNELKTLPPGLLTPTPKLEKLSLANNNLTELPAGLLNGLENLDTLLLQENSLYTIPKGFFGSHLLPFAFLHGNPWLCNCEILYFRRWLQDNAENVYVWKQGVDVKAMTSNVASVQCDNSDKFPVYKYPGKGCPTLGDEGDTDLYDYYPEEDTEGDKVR

Row | Molecule | Kd (GPIbα LBD (Homo sapiens)) [µM] | Kd (plasma-derived VWF) [µM] | Kd (purified VWF) [µM]
1 | von Willebrand factor AIM-A1 1238-1471 (from UniProt P04275) | 32 | – | –
2 | B1 | – | ~0.02 | ~0.02
